Source: patent publication US20110104715A1 (published 2011)
Each block holds one binder with its values, some of them ahead of it.

Experiments:
[1] = molecular target: T1, Wild-type human APP695 (β-amyloid precursor protein) (human, UniProt P05067-4 18-695); test: co-immunoprecipitation with anti-FLAG M2 from co-transfected 293T cells, western blot for APP with 5A3/1G7
T1 construct: also called full-length APP

[2] = molecular target: T1, Wild-type human APP695 (β-amyloid …); test: co-immunoprecipitation with anti-FLAG M2 from co-transfected 293T cells, densitometry of the APP band
[3] = molecular target: T2, APPΔC31 (N-terminal 664 amino acids of APP695) (human, UniProt P05067 18-664); test: co-immunoprecipitation (anti-FLAG M2) from co-transfected 293T cells, western blot with 5A3/1G7
T2 construct: Used both for the deletion construct and for the product of caspase cleavage of APP at Asp664; also called APPdeltaC31; C-terminal truncated APP

B1: FLAG-tagged catalytic mutant caspase-7 (C186A) (enzyme, UniProt P55210 1-303, looked up)
chain: MADDQGCIEEQGVEDSANEDSVDAKPDRSSFVPSLFSKKKKNVTMRSIKTTRDRVPTYQYNMNFEKLGKCIIINNKNFDKVTGMGVRNGTDKDAEALFKCFRSLGFDVIVYNDCSCAKMQDLLKKASEEDHTNAACFACILLSHGEENVIYGKDGVTPIKDLTAHFRGDRCKTLLEKPKLFFIQAARGTELDDGIQADSGPINDTDANPRYKIPVEADFLFAYSTVPGYYSWRSPGRGSWFVQALCSILEEHGKDLEIMQILTRVNDRVARHFESQSDDPHFHEKKQIPCVVSMLTKELYFSQ
notes: FLAG tag present; also called C7
quantitative densitometry intensity of co-immunoprecipitated APP [1]: 1

B4: FLAG-tagged catalytic mutant caspase-6 (C163A) (enzyme, UniProt P55212 1-293, looked up)
chain: MSSASGLRRGHPAGGEENMTETDAFYKREMFDPAEKYKMDHRRRGIALIFNHERFFWHLTLPERRGTCADRDNLTRRFSDLGFEVKCFNDLKAEELLLKIHEVSTVSHADADCFVCVFLSHGEGNHIYAYDAKIEIQTLTGLFKGDKCHSLVGKPKIFIIQAARGNQHDVPVIPLDVVDNQTEKLDTNITEVDAASVYTLPAGADFLMCYSVAEGYYSHRETVNGSWYIQDLCEMLGKYGSSLEFTELLTLVNRKVSQRRVDFCKDPSAIGKKQVPCFASMLTKKLHFFPKSN
notes: FLAG tag present; also called C6
quantitative densitometry intensity of co-immunoprecipitated APP [1]: 1.2

The remaining lines, values ahead:

intensity relative to the other caspases tested [2]: ~200%
binding result [3]: no binding
quantitative densitometry intensity of co-immunoprecipitated APP [1]: 2.2
B2: FLAG-tagged catalytic mutant caspase-8 (C360A) (enzyme, UniProt Q14790 1-479, looked up)
chain: MDFSRNLYDIGEQLDSEDLASLKFLSLDYIPQRKQEPIKDALMLFQRLQEKRMLEESNLSFLKELLFRINRLDLLITYLNTRKEEMERELQTPGRAQISAYRVMLYQISEEVSRSELRSFKFLLQEEISKCKLDDDMNLLDIFIEMEKRVILGEGKLDILKRVCAQINKSLLKIINDYEEFSKERSSSLEGSPDEFSNGEELCGVMTISDSPREQDSESQTLDKVYQMKSKPRGYCLIINNHNFAKAREKVPKLHSIRDRNGTHLDAGALTTTFEELHFEIKPHDDCTVEQIYEILKIYQLMDHSNMDCFICCILSHGDKGIIYGTDGQEAPIYELTSQFTGLKCPSLAGKPKVFFIQAAQGDNYQKGIPVETDSEEQPYLEMDLSSPQTRYIPDEADFLLGMATVNNCVSYRNPAEGTWYIQSLCQSLRERCPRGDDILTILTEVNYEVSNKDDKKNMGKQMPQPTFTLRKKLVFPSD
notes: Printed as 'caspase-S(C360A)', read as caspase-8; FLAG tag present; also called C8; caspase-S(C360A)

quantitative densitometry intensity of co-immunoprecipitated APP [1]: 1.1
B3: FLAG-tagged catalytic mutant caspase-9 (C287A) (enzyme, UniProt P55211 1-416, looked up)
chain: MDEADRRLLRRCRLRLVEELQVDQLWDALLSRELFRPHMIEDIQRAGSGSRRDQARQLIIDLETRGSQALPLFISCLEDTGQDMLASFLRTNRQAAKLSKPTLENLTPVVLRPEIRKPEVLRPETPRPVDIGSGGFGDVGALESLRGNADLAYILSMEPCGHCLIINNVNFCRESGLRTRTGSNIDCEKLRRRFSSLHFMVEVKGDLTAKKMVLALLELAQQDHGALDCCVVVILSHGCQASHLQFPGAVYGTDGCPVSVEKIVNIFNGTSCPSLGGKPKLFFIQAAGGEQKDHGFEVASTSPEDESPGSNPEPDATPFQEGLRTFDQLDAISSLPTPSDIFVSYSTFPGFVSWRDPKSGSWYVETLDDIFEQWAHSEDLQSLLLRVANAVSVKGIYKQMPGCFNFLRKKLFFKTS
notes: FLAG tag present; also called C9
